In this series the target is T1, rLiH2A (histone H2A) (Leishmania infantum, UniProt Q9BJC8 1-132).
T1 sequence: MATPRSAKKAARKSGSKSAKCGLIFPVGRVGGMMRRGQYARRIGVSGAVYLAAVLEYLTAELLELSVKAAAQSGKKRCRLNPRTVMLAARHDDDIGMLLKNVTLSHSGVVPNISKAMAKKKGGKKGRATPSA
Nature of the series: ELONA. Conditions: protein: recombinant; tags: His (Ni-NTA purified).

B1: AptLiH2A#2 (structured_DNA)
DNA: GCGGATGAAGACTGGTGTGGAGTCTACCCTGTTTTCTAGTCTGCCATCCCTATCCCATGCCCTAAATACGAGCAAC
For the molecule B1, the Kd came out at 1.16 ± 0.28 nM.

B2: AptLiH2A#1 (structured_DNA)
DNA: GCGGATGAAGACTGGTGTTGTGCAATGATTTTTCCGGTTGACCAGGTAGGAATTGTAGGCCCTAAATACGAGCAAC
With B2, the Kd turned out to be 0.96 ± 0.17 nM.

Broadly, the Kd is the constant that tells how readily two partners part at equilibrium.

(Values after article PMC3804487, “DNA Aptamers Selectively Target Leishmania infantum H2A Protein”.)
